Molecular target: SARS-CoV-2 RBD (residues Arg319–Phe541) (SARS-CoV-2) (UniProt P0DTC2)

| Binder | SARS-CoV-2 pseudovirus neutralisation (luciferase, Huh7), IC50, Fab [nM] | SARS-CoV-2 pseudovirus neutralisation (luciferase, Huh7), IC80, Fab [nM] | other [%] |
| --- | --- | --- | --- |
| P5A-1B8 (Fab) (Fab, V domains shown) VH: EVQLVESGGGLIQPGGSLRLSCAASGFTVSSNYMSWVRQAPGKGLEWVSVIYPGGSTFYADSVKGRFTISRDNSKNTLYLQMNSLRAEDTAVYYCARETLAFDYWGQGTLVTVSS VL: DIQLTQSPSFLSASVGDRVTITCRASQGISSYLAWYQQKPGKAPKLLIYAASTLQSGVPSRFSGSGSGTEFTLTISSLQPEDFATYYCQQLNSYPPAFGGGTKVEIK | 36.2 | 174 | 25.1 |
| P5A-2G7 (Fab) (Fab, V domains shown) VH: QVQLQESGPGLVKPSETLSLTCTVSGDSVSSGSYYWSWIRQPPGKGLEWIGYIYYSGSTNYNPSLKSRVTISVDTSKNQFSLKLSSVTAADTAVYYCARERCYYGSGRAPRCVWFDPWGQGTLVTVSS VL: QSALTQPASVSGSPGQSITISCTGTSSDVGGYNYVSWYQQHPGKAPKLMIYDVSNRPSGVSNRFSGSKSGNTASLTISGLQAEDEADYYCSSYTSSSTLVVFGGGTKLTVL | 195 | 1020 | 15.5 |
